B1: 059-152-Fv (Fv fragment of the fully human anti-EGFR antibody 059-152) (other)
VH: QVQLQESGPGLVKPSETLSLTCTVSGGSISSSSYYWGWIRQPPGKGLEWIGSIYYSGSTYYNPSLKSRVTISVDTSKNQFSLKLSSVTAADTAVYYCARLPMVTMSFDYWGQGTLVTVSS
VL: SYVLTQPPSVSVAPGKTARITCGGNNIGSKSVHWYQQKPGQAPVLVIYYDSDRPSGIPERFSGSNSGNTATLTISRVEAGDEADYYCQVWDSSSDHVVFGGGTKLTVL
notes: also in PDB 5XWD; VL also in PDB 5XWD; Fv: VH and VL synthesised together as two separate chains; source: cell-free synthesis (E. coli S30 extract, dialysis mode, 0.2 mg/ml DsbC), purified (HisTrap, TEV cleavage, SEC); not shown: N11-tag, N-terminal, cleaved
B2: AzF-incorporated 059-152-Fv (other, human)
VH: B1 VH
VL: B1 VL
notes: also in PDB 5XWD; linker inserted just before the stop codon, followed by the amber codon that is read as AzF; Fv; AzF is the last residue of the VH chain, after the linker; also called AzF-incorporated Fv; not shown: N11-tag, N-terminal, cleaved
B3: Alexa-488 conjugated 059-152-Fab (Fab, V domains shown)
VH: B1 VH
VL: B1 VL
notes: also in PDB 5XWD; linker inserted just before the stop codon, followed by the amber codon that is read as AzF; m6 after copper-free click chemistry; also called Alexa-488 conjugated Fab; not shown: N11-tag, N-terminal, cleaved
B4: Alexa-488 conjugated 059-152-Fv (other, human)
VH: B1 VH
VL: B1 VL
notes: also in PDB 5XWD; linker inserted just before the stop codon, followed by the amber codon that is read as AzF; Fv; m3 after copper-free click chemistry; also called Alexa-488 conjugated Fv; not shown: N11-tag, N-terminal, cleaved
B5: 059-152-Fab (Fab fragment of the fully human anti-EGFR antibody 059-152) (Fab, V domains shown)
VH: B1 VH
VL: B1 VL
notes: also in PDB 5XWD; its VL part is in PDB 5XWD; source: cell-free synthesis (E. coli S30 extract, dialysis mode, 0.8 mg/ml DsbC), purified (HisTrap, TEV cleavage, SEC); not shown: N11-tag, N-terminal, cleaved
B6: AzF-incorporated 059-152-Fab (Fab, V domains shown)
VH: B1 VH
VL: B1 VL
notes: also in PDB 5XWD; linker inserted just before the stop codon, followed by the amber codon that is read as AzF; AzF is the last residue of the VHCH1 chain, after the linker; also called AzF-incorporated Fab; not shown: N11-tag, N-terminal, cleaved

The target in this assay is T1, EGFR-ECD (extracellular domain of human epidermal growth factor receptor, 1-643) (Homo sapiens, UniProt P00533, N-linked oligosaccharides cleaved by endoglycosidase H).
T1 construct: human epidermal growth factor receptor, extracellular domain, residues 1-643 as printed; A TEV site between the ECD and the His-tag is implied by the cleavage; also called extracellular domain of human EGFR; human EGFR-ECD; source: HEK293S GnTI- cells, transient overexpression, secreted; purified (HisTrap, TEV cleavage of the His-tag, endoglycosidase H, HiTrap Q, SEC); not shown: His-tag, …
In words: SPR; BIAcore 3000; EGFR-ECD immobilised on a CM5 chip by amine coupling; single-cycle kinetics with 50.0, 16.6, 5.55, 1.85 and 0.617 nM Fv or Fab; 30 ul/min, 60-s association, 120-s dissociation; 25 C; HBS-EP+ buffer; triplicate. The settings on record: both partners purified. On the technique in general: SPR reads the build-up and loss of mass on a sensor chip optically.
Usually Kd stands for the constant that tells how readily two partners part at equilibrium. Low values mean tighter binding, high ones weaker binding. A word on the koff: it is a measure of how fast the partners let go of each other. The term kon denotes the second-order rate constant of association. A lower kon goes with slow association. B1: the Kd worked out at 5.9 ± 0.1 nM, the dissociation rate constant (koff) stood at 0.0147 s⁻¹ and the kon worked out at 2.49e+06 M⁻¹ s⁻¹.

With B2, the Kd amounted to 5.8 ± 0.2 nM, the koff is 0.0137 s⁻¹ and the association rate constant (kon) was found to be 2.36e+06 M⁻¹ s⁻¹.

As for B3, binding was characterised by a dissociation constant (Kd) of 8.1 ± 0.2 nM, the koff turned out to be 0.0133 s⁻¹ and the on-rate constant (kon) stood at 1.67e+06 M⁻¹ s⁻¹.

For B4, the Kd was 6.1 ± 0.1 nM, the koff came to 0.0154 s⁻¹ and the kon was 2.52e+06 M⁻¹ s⁻¹.

In turn, B5 registered a Kd of 7.7 ± 0.1 nM, an off-rate (koff) of 0.015 s⁻¹ and an on-rate constant (kon) of 1.94e+06 M⁻¹ s⁻¹.

For B6, the affinity, expressed as Kd, was 7 ± 0.1 nM; the off-rate constant (koff) turned out to be 0.0125 s⁻¹; the on-rate constant (kon) came to 1.78e+06 M⁻¹ s⁻¹.

These data come from publication PMC5819829, “Cell-free synthesis of functional antibody fragments to provide a structural basis for antibody–antigen interaction” (PLoS ONE, 2018).
